{"source": "patent US20230203470A1", "about": "(published 2023)", "proteins": {"B1": {"name": "WT recombinant human ADA2-FLAG polypeptide (enzyme)", "chain": "IDETRAHLLLKEKMMRLGGRLVLNTKEELANERLMTLKIAEMKEAMRTLIFPPSMHFFQAKHLIERSQVFNILRMMPKGAALHLHDIGIVTMDWLVRNVTYRPHCHICFTPRGIMQFRFAHPTPRPSEKCSKWILLEDYRKRVQNVTEFDDSLLRNFTLVTQHPEVIYTNQNVVWSKFETIFFTISGLIHYAPVFRDYVFRSMQEFYEDNVLYMEIRARLLPVYELSGEHHDEEWSVKTYQEVAQKFVETHPEFIGIKIIYSDHRSKDVAVIAESIRMAMGLRIKFPTVVAGFDLVGHEDTGHSLHDYKEALMIPAKDGVKLPYFFHAGETDWQGTSIDRNILDALMLNTTRIGHGFALSKHPAVRTYSWKKDIPIEVCPISNQVLKLVSDLRNHPVATLMATGHPMVISSDDPAMFGAKGLSYDFYEVFMGIGGMKADLRTLKQLAMNSIKYSTLLESEKNTFMEIWKKRWDKFIADVATKDYKDDDDK", "notes": "The only entry describes two identical subunits associating into the homodimer seen by SEC; Expressed in CHO-S cells and purified on anti-FLAG M2 resin; also called rHuADA2; rHuADA2-FLAG"}}, "biological_target": "the molecule itself", "test": "size-exclusion chromatography of anti-FLAG affinity purified protein (self-association into a homodimer)", "description": "Batch purification was performed using an anti-FLAG M2 affinity resin (Sigma-Aldrich, St. Louis, Mo., Cat. No. A2220), following the manufacturer's instructions. ADA2 were eluted from the resin using FLAG™ peptide. Purity of the eluted protein was assessed using SDS-PAGE and size-exclusion chromatography (SEC).", "data": [{"protein": "B1", "values": [{"measurement": "binding result", "result": "binds"}]}]}
